Test results published in patent US12269859B2, “Synthetic immune receptors and methods of use thereof” (Angeles Therapeutics, Inc., priority 2016, dated 2025).

Test system: target antigen-expressing cell line
Test: Jurkat NFAT-GFP assay, coculture with target cell lines expressing the respective target antigen (summary Table 10A)
Type: cell-based, human
Design: key: The signs +/−, +, 2+ etc. after the name of the cell lines indicate the relative degree of positivity on the Jurkat-NFAT-GFP assay as measured by the % GFP positive cells; +: relative degree of positivity on the Jurkat-NFAT-GFP assay as measured by the % GFP positive cells; 2+: relative degree of positivity on the Jurkat-NFAT-GFP assay as measured by the % GFP positive cells
Conditions: relative % GFP positive cells; for NFAT-GFP ASSAY Positive Cell lines: NALM6: SIR-expressing Jurkat-NFAT-GFP cells cocultured with NALM6
Procedure, shortened: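 Read-out: % GFP+ cells by FACS. SIR-transduced, puromycin-selected Jurkat NFAT-GFP (IL-2 promoter reporter) cocultured ~4–18 h with target line, E:T ~1:2; parental cells as control; graded +/−, +, 2+ relative to parental.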

B1: 012517-E12 (protein)
chain: MALPVTALLLPLALLLHAARPLEGKPIPNPLLGLDSTGSGEDLKNVFPPEVAVFEPSKAEIAHTQKATLVCLATGFYPDHVELSWWVNGKEVHSGVCTDPQPLKEQPALNDSRYCLSSRLRVSATFWQNPRNHFRCQVQFYGLSENDEWTQDRAKPVTQIVSAEAWGRADCGITSASYHQGVLSATILYEILLGKATLYAVLVSALVLMAMVKRKDSRGRAKRSGSGATNFSLLKQAGDVEENPGPTSMALPVTALLLPLALLLHAARPDIQMTQTTSSLSASLGDRVTISCRASQDISNYLNWYQQKPDGTVKLLIYYTSILHSGVPSRFSGSGSGTDYSLTISNLEQEDFATYFCQQGNTLPWTFGGGTKLEIKAGGGGSGGGGSGGGGSEVQLVESGGGLVKPGGSLKLSCAASGFAFSIYDMSWVRQTPEKRLEWVAYISSGGGTYYPDTVKGRFTISRDNAKNTLYLQMSSLKSEDTAMYYCARHSGYGTHWGVLFAYWGQGTLVTVSATREQKLISEEDGSGIQNPDPAVYQLRDSKSSDKSVCLFTDFDSQTNVSQSKDSDVYITDKCVLDMRSMDFKSNSAVAWSNKSDFACANAFNNSIIPEDTFFPSSDVPCDVKLVEKSFETDTNLNFQNLSVIGFRILLLKVAGFNLLMTLRLWSSRAKRSGSGVKQTLNFDLLKLAGDVESNPGPSRGHMTEYKPTVRLATRDDVPRAVRTLAAAFADYPATRHTVDPDRHIERVTELQELFLTRVGLDIGKVWVADDGAAVAVWTTPESVEAGAVFAEIGPRMAELSGSRLAAQQQMEGLLAPHRPKEPAWFLATVGVSPDHQGKGLGSAVVLPGVEAAERAGVPAFLETSAPRNLPFYERLGFTVTADVEVPEGPRTWCMTRKPGA
  NFAT-GFP ASSAY Positive Cell lines: NALM6: (+/−)
SIR-expressing Jurkat-NFAT-GFP cells cocultured with RAJI
  NFAT-GFP ASSAY Positive Cell lines: RAJI: RAJI (+), NALM6

B2: 040417-R02 (protein)
chain: MALPVTALLLPLALLLHAARPEVQLVESGGGLVQPGRSLRLSCAASGFTFDDYAMHWVRQAPGKGLEWVSGISWNSGSIGYADSVKGRFTISRDNAKNSLYLQMNSLRAEDTALYYCAKDKGGGYYDFWSGSDYWGQGTLVTVSSLEDLKNVFPPEVAVFEPSKAEIAHTQKATLVCLATGFYPDHVELSWWVNGKEVHSGVCTDPQPLKEQPALNDSRYCLSSRLRVSATFWQNPRNHFRCQVQFYGLSENDEWTQDRAKPVTQIVSAEAWGRADCGITSASYHQGVLSATILYEILLGKATLYAVLVSALVLMAMVKRKDSRGRAKRSGSGATNFSLLKQAGDVEENPGPTSMDWIWRILFLVGAATGAHSFESSELTQDPAVSVALGQTVRITCQGDSLRSYYASWYQQKPGQAPVLVIYGKNNRPSGIPDRFSGSSSGNTASLTITGAQAEDEADYYCNSRDSSGWVFGGGTKLTVLTRIQNPDPAVYQLRDSKSSDKSVCLFTDFDSQTNVSQSKDSDVYITDKCVLDMRSMDFKSNSAVAWSNKSDFACANAFNNSIIPEDTFFPSSDVPCDVKLVEKSFETDTNLNFQNLSVIGFRILLLKVAGFNLLMTLRLWSSRAKRSGSGVKQTLNFDLLKLAGDVESNPGPSRGHMTEYKPTVRLATRDDVPRAVRTLAAAFADYPATRHTVDPDRHIERVTELQELFLTRVGLDIGKVWVADDGAAVAVWTTPESVEAGAVFAEIGPRMAELSGSRLAAQQQMEGLLAPHRPKEPAWFLATVGVSPDHQGKGLGSAVVLPGVEAAERAGVPAFLETSAPRNLPFYERLGFTVTADVEVPEGPRTWCMTRKPGA
  NFAT-GFP ASSAY Positive Cell lines: NALM6: (+)
